Data on 1 molecule can be found in paper doi:10.1101/2022.08.14.503930 (bioRxiv, 2022).

This assay deals with T1, GFP-TBK1 (UniProt Q9UHD2 1-729).
T1 construct: TBK1, insect codon optimized gene from GenScript; source: Sf9, purified (Glutathione Sepharose, TEV cleavage, Superdex 200)
Kind of assay: microscopy-based bead protein-protein interaction assay; GST-4xUb (10 uM) on Glutathione Sepharose beads with OPTN S177D S473D 500 nM, GFP-TBK1 500 nM and PI3Kc1-mCh 200 nM; 25 mM TRIS-Cl pH 7.5, 150 mM NaCl, 1 mM DTT; 30 min, confocal. To be noted: both partners purified.

B1: OPTN S2D (S177D, S473D) (natural protein, UniProt Q96CV9 1-577, looked up)
chain: MSHQPLSCLTEKEDSPSESTGNGPPHLAHPNLDTFTPEELLQQMKELLTENHQLKEAMKLNNQAMKGRFEELSAWTEKQKEERQFFEIQSKEAKERLMALSHENEKLKEELGKLKGKSERSSEDPTDDSRLPRAEAEQEKDQLRTQVVRLQAEKADLLGIVSELQLKLNSSGSSEDDFVEIRMAEGEAEGSVKEIKHSPGPTRTVSTGTALSKYRSRSADGAKNYFEHEELTVSQLLLCLREGNQKVERLEVALKEAKERVSDFEKKTSNRSEIETQTEGSTEKENDEEKGPETVGSEVEALNLQVTSLFKELQEAHTKLSEAELMKKRLQEKCQALERKNSAIPSELNEKQELVYTNKKLELQVESMLSEIKMEQAKTEDEKSKLTVLQMTHNKLLQEHNNALKTIEELTRKESEKVDRAVLKELSEKLELAEKALASKQLQMDEMKQTIAKQEEDLETMTILRAQMEVYCDDFHAERAAREKIHEEKEQLALQLAVLLKENDAFEDGGRQSLMEMQSRHGARTSDSDQQAYLVQRGAEDRDWRQQRNIPIHSCPKCGEVLPDIDTLQIHVMDCII
notes: optineurin (OPTN), TBK1 phospho-mimetic form; pGST2-GST-TEV-OPTN(S177D S473D), derived from vectors of Chang et al., 2021; also called OPTN S177D S473D; phosphomimetic OPTN S2D; source: E. coli Rosetta pLySS, purified (Glutathione Sepharose, TEV cleavage, Superdex 200); not shown: GST, N-terminal, cleaved
For B1, the binding result is listed as “binds”.
